The results in this text go back to publication PMC10998858, “Structure and mechanisms of transport of human Asc1/CD98hc amino acid transporter” (Nature Communications, 2024).

In this test the target is T1, human CD98hc (SLC3A2), heavy subunit of the Asc1/CD98hc heterodimer (human, UniProt P08195-2 1-529, N-glycosylation at residues 264, 280, 323 and 405; disulfide bridge from Cys 109 to Cys 154 of Asc1).
T1 construct: CD98hc (SLC3A2), human; residues 61-529 were modelled and the disulfide cysteine is numbered C109, which fits the 529-residue isoform (isoform f is named only for the HeLa construct); also called heavy chain; ancillary subunit; source: HEK293-6E, co-transfected with Asc1, purified as heterodimer in digitonin (Ni-NTA, size exclusion chromatography)
T1 sequence: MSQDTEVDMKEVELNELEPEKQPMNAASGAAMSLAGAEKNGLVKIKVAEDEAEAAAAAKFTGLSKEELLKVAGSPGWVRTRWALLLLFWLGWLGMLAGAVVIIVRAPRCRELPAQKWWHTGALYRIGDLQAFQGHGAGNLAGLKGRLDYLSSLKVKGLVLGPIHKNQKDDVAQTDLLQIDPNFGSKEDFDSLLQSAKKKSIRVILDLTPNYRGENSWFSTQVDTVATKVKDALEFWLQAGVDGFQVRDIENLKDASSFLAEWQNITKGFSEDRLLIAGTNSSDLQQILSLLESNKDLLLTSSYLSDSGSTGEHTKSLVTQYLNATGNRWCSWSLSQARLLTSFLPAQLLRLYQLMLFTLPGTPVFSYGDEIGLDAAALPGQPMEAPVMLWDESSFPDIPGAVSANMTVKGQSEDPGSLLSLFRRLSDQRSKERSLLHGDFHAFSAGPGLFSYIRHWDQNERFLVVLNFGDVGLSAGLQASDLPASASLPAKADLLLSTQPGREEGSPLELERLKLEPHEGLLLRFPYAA
As to the kind of experiment: cryo-EM structure; heterodimer co-expressed in HEK293-6E, solubilised in 1% digitonin, purified by Ni-NTA and Superdex200 in 20 mM Tris-HCl pH 8.0, 150 mM NaCl, 0.1% digitonin; 1.2-1.5 mg/ml, 10 mM D-Ser added before vitrification (no ligand density found). To be noted: both partners purified.

B1: human Asc1 (SLC7A10), light subunit of the Asc1/CD98hc heterodimer (natural protein)
chain: MAGHTQQPSGRGNPRPAPSPSPVPGTVPGASERVALKKEIGLLSACTIIIGNIIGSGIFISPKGVLEHSGSVGLALFVWVLGGGVTALGSLCYAELGVAIPKSGGDYAYVTEIFGGLAGFLLLWSAVLIMYPTSLAVISMTFSNYVLQPVFPNCIPPTTASRVLSMACLMLLTWVNSSSVRWATRIQDMFTGGKLLALSLIIGVGLLQIFQGHFEELRPSNAFAFWMTPSVGHLALAFLQGSFAFSGWNFLNYVTEEMVDARKNLPRAIFISIPLVTFVYTFTNIAYFTAMSPQELLSSNAVAVTFGEKLLGYFSWVMPVSVALSTFGGINGYLFTYSRLCFSGAREGHLPSLLAMIHVRHCTPIPALLVCCGATAVIMLVGDTYTLINYVSFINYLCYGVTILGLLLLRWRRPALHRPIKVNLLIPVAYLVFWAFLLVFSFISEPMVCGVGVIIILTGVPIFFLGVFWRSKPKCVHRLTESMTHWGQELCFVVYPQDAPEEEENGPCPPSLLPATDKPSKPQ
modifications: disulfide bridge from Cys 154 to Cys 109 of CD98hc
notes: Asc1 (SLC7A10), human; residues 41-489 were modelled in the cryoEM map; The final construct has no GFP; a version with C-terminal eGFP was used only in preliminary trials; also called hAsc1; light chain; source: HEK293-6E, co-transfected with CD98hc, purified as heterodimer in digitonin (Ni-NTA, size exclusion chromatography); not shown: 6xHis, C-terminal, kept
With B1, the binding result is reported as “binds”.
